The values below come from patent US20260201002A1, “KERATIN CF1, PREPARATION METHOD THEREFOR, PHARMACEUTICAL COMPOSITION COMPRISING SAME, AND USE THEREOF” (INSTITUTE OF MATERIA MEDICA ,CHINESE ACADEMY OF MEDICAL …, priority 2023, published 2026).

Structures can show the parent of a compound that is named as a salt.

For test [1], the system named is yeast-induced fever model in rats. As to the kind of experiment: Yeast-induced SD rat fever model. Type of test: in vivo, SD rats. To be noted: for Basal body temperature: rectal temperature before modeling, N=8; for Body temperature 2 hours after modeling / Body temperature 6 hours after modeling / Body temperature 8 hours after modeling / Body temperature 4 hours after modeling: then 20% yeast suspension 10 ml/kg s.c.; for Body temperature 2 hours after modeling: model group 37.5 ± 0.1; for Body temperature 6 hours after modeling / Body temperature 8 hours after modeling: model group 37.6 ± 0.1; for Body temperature 4 hours after modeling: model group 37.7 ± 0.1; for Effect on body temperature of model rats (in words): P<0.05 vs model group. On the procedure: • Animals: male SD rats, weight 230-260 grams; • Medicines: yeast (OXOID LP0021), Aspirin (SIGMA A2093), protein CF1; • Instruments: electronic balance (SARTORIUS BP121S), electronic clinical thermometer • (CITIZEN CT-513W). • Experiment grouping: • Normal control group; • Model group: yeast-induced fever model; • Positive control group: Aspirin 300 mg/kg group; • Protein CF1, 10 mg/kg group, 50 mg/kg group.
Preparation of experimental animals: After the experimental animals were adapted to the experimental environment (temperature 22° C.±2° C., relative humidity 50%±2%) for 1 day, the rectal temperature was measured for pre-adaptation at 8:00 in the morning and 15:00 respectively. The animals were fasted for 12 hours before the experiment with water provided ad libitum, and their bowels were emptied before the rectal temperature was measured. Before each temperature measurement, the probe of the electronic thermometer was applied with Vaseline and inserted 2 cm into the rat's rectum (a marker was made at 2 cm to ensure consistent insertion depth each time). The body temperature was recorded after readings stabilized.
(§1) Subcutaneous injection of dry yeast to replicate the rat fever model: Before model establishment, the body temperature of rats was measured. Qualified rats with body temperatures of 36.2-37.3° C. were selected and randomly grouped, with 8 rats per group. After oral administration of aspirin and different doses of protein CF1, 20% yeast suspension (10 ml/kg) was immediately subcutaneously injected. The normal control group was subcutaneously injected with the same volume of normal saline. The body temperatures of rats were monitored 2 hours later, once every 2 hours, for a total of 8 hours.
(§2) Based on the body temperature values measured at each time point on the day of the experiment, the mean, standard deviation and standard error of body temperature of rats in each group were calculated. The TTEST test was applied to compare the data of each group between groups, and P<0.05 was considered as a significant difference.

The test system of test [2] is lipopolysaccharide (LPS) induced fever in rats. As to the kind of experiment: Lipopolysaccharide (LPS)-induced SD rat fever model. It counts as in vivo, SD rats. To be noted: for Body temperature 2 hours after modeling / Body temperature 4 hours after modeling / Body temperature 6 hours after modeling / Body temperature 8 hours after modeling: then LPS 20 μg/kg i.p.; for Body temperature 2 hours after modeling / Body temperature 4 hours after modeling: model group 37.7 ± 0.1; for Body temperature 6 hours after modeling: model group 37.8 ± 0.2; for Body temperature 8 hours after modeling: model group 37.9 ± 0.2; for Effect on body temperature of model rats (in words): P<0.05 vs model group. On the procedure: • Animals: Male SD rats, weight: 230-260 grams; • Drugs: lipopolysaccharide (LPS, SIGMA L-2880), aspirin (SIGMA A2093), protein CF1; • Instruments: electronic balance (SARTORIUS BP121S), electronic clinical thermometer (CITIZEN CT-513W). • Experiment grouping: • Normal control group; • Model group: lipopolysaccharide fever model group; • Positive control group: Aspirin 300 mg/kg group; • Protein CF1, 10 mg/kg group, 50 mg/kg group. • Method: the method for replicating the rat fever model via intraperitoneal injection of lipopolysaccharide. • Preparation of experimental animals: After the experimental animals were adapted to the experimental environment (temperature 22° C.±2° C., relative humidity 50%±2%) for 1 day, the rectal temperature was measured for pre-adaptation at 8:00 in the morning and 15:00 respectively. The animals were fasted for 12 hours before the experiment with water provided ad libitum, and their bowels were emptied before the rectal temperature was measured. Before each temperature measurement, the probe of the electronic thermometer was applied with Vaseline and inserted 2 cm into the rat's rectum (a marker was made at 2 cm to ensure consistent insertion depth each time). The body temperature was recorded after readings stabilized.
as §1, with “Intraperitoneal Injection” for “Subcutaneous injection”, “Lipopolysaccharide” for “dry yeast”, “lipopolysaccharide (20 μg/kg, 2” for “20% yeast suspension (10”, “intraperitoneally” for “subcutaneously”, “later and” for “later, once every 2 hours,”
as §2

Test [3] relates to ammonia water-induced cough in mice. Description: Antitussive effect on ammonia water-induced cough in mice. Type of test: in vivo, ICR mice. The conditions noted are these: for Latency period: 1 hour before 10% ammonia water 10 seconds, solvent control 30.0 ± 1.8; for Latency period / Cough frequency: X ± SEM; for Cough frequency: within 2 minutes, 1 hour before 10% ammonia water, solvent control 65.5 ± 3.8. The method, then:
• Animals: male ICR mice; • Drug and reagents: dextromethorphan hydrobromide, ammonia, 0.2% CMC-Na, protein CF1; • Instruments: Compressed nebulizer (403T), balance (XS105DU). • Experiment grouping: • Solvent control group; • Dextromethorphan 15 mg/kg group; • Protein CF1, 20 mg/kg group, 50 mg/kg group.
Model establishment and drug administration: Mice were orally administered dextromethorphan or varying doses of protein CF1 (administration volume: 10 ml/kg). The solvent control group were administered an equal volume of distilled water. After 1 hour, mice were placed in a sealed chamber and atomized with 10% ammonia water for 10 seconds. The cough latency period and cough frequency within 2 minutes were then observed and recorded.
Data processing: The oral administration time point, the nebulization exposure time point, the cough latency period, and the cough frequency within 2 minutes were recorded respectively. The cough latency period refers to the time interval of seconds required from the start of ammonia nebulization to the occurrence of coughing. The manifestation of coughing in mice is characterized by the contraction of their abdominal muscles (chest retraction) and the opening of their mouths wide. The mean and standard error of data in each group were calculated. The TTEST test was applied to compare the model group with the other groups. P<0.05 was considered as a significant difference.

The mark [4] stands for this setting: aspirin 300 mg/kg oral, 2, 4, 6 and 8 hours after modeling.

Molecule `CC(=O)Oc1ccccc1C(=O)O` [Aspirin, aspirin, reference compound] gave a Basal body temperature in test [1] (aspirin 300 mg/kg oral group) of 36.9 ± 0.1 °C. In test [1] (aspirin 300 mg/kg oral), the “Body temperature 2 hours after modeling” value amounted to 36.9 ± 0.1 °C, the “Body temperature 6 hours after modeling” value was 37.2 ± 0.1 °C, the “Body temperature 8 hours after modeling” value was found to be 37.1 ± 0.1 °C and the “Body temperature 4 hours after modeling” value was 37.1 ± 0.2 °C. Moreover, the “Effect on body temperature of model rats (in words)” value (from here on “Effect … of model rats (in words)”) in test [1] (setting [4]) is reported as “can effectively inhibit the increase of body temperature”. In test [2] (aspirin 300 mg/kg oral), the “Body temperature 2 hours after modeling” value is 37.0 ± 0.2 °C, the “Body temperature 4 hours after modeling” value was determined as 37.0 ± 0.2 °C, the “Body temperature 6 hours after modeling” value came to 37.3 ± 0.1 °C and the “Body temperature 8 hours after modeling” value was found to be 37.2 ± 0.1 °C. In addition, the “Effect … of model rats (in words)” value in test [2] (setting [4]) is given as “can effectively inhibit the increase of body temperature”.
In test [3] (dextromethorphan 15 mg/kg oral), `COc1ccc2c(c1)[C@]13CCCC[C@@H]1[C@H](C2)N(C)CC3` [Dextromethorphan, dextromethorphan hydrobromide, reference compound] yielded a Latency period of 45.4 ± 2.1 s and a Cough frequency of 36.8 ± 2.8. Besides, the “Effect on latency period and cough frequency (in words)” value in test [3] (dextromethorphan 15 mg/kg oral, vs solvent control group, P<0.05) was “significant improvements in terms of latency period and cough frequency”.

B1: CF1: keratin with the amino acid sequence of SEQ ID NO. 1, expressed in E. coli; tested batch is the protein in Example 7 (protein)
chain: MSCRSYRVSSGHRVGNFSSCSAGIPRNLNRFRASSVSCRSGPSFRGIGGFGSRSVITFGSCSPRIAAVGPRPIRCGVGFGAGSGMAFGFGDGIGAGLGFGSGSYLGYGFGGPGFGYRVGGIGVPAAPSITPVTVNQSLLTPLNLEIDPNAQRVKRDEKEQIKTLNNRFASFIDKVRFLEQQNKLLETKWSFLQEQKGARSNLEPLFENYITNLQRQLDIANSERARFEAERNQLQDVLEGFKKKYEEEVVFRANAENEFVALKKDVDAAFLNKAELEANVDTLTQEIDFLKTLYAAEIQLLQSHISETSVIVKMDNSRDLDLDGIIAEVRAQYEEVAKRSRADAEAWYQTKYEEMRVTAGQHCDNLRNTREEINELTRLIQRLKAEIEHAKAQRARLEAAVAEAEQQGEAALNDAKCKLADLEAALQQAKQDMARQLREYQELMNAKLGLDIEIATYRRLLEGEEIRICEGVGPVNISVSSSRGGVVCGPESLVTSSTLSRSGVTFSGSSSIRPSGACGSSLGGVVVAGGDLLSAGSRGGSVLVGEACVPSVPCPLPTEGFSSCSGGRSSSLRFVSTTTSRRTKY
For B1, the “Effect on body temperature of model animals (summary, in words)” value in test [1] (8 hours post-modeling, dose not stated) is recorded as “significant effect in reducing the elevated body temperature”. For the same molecule, the Basal body temperature in test [1] (CF1 10 mg/kg oral group) was found to be 36.9 ± 0.1 °C; in test [1] (CF1 50 mg/kg oral group), 36.8 ± 0.1 °C; in test [2] (CF1 50 mg/kg oral group, rectal temperature before modeling, N=8), 36.8 ± 0.05 °C. Further, the “Body temperature 2 hours after modeling” value was 37.0 ± 0.1 °C in test [1] (CF1 10 mg/kg oral), 36.8 ± 0.1 °C in test [1] (CF1 50 mg/kg oral), 37.3 ± 0.1 °C in test [2] (CF1 10 mg/kg oral) and 37.3 ± 0.2 °C in test [2] (CF1 50 mg/kg oral). Further, the “Body temperature 6 hours after modeling” value in test [1] (CF1 10 mg/kg oral) was 37.4 ± 0.1 °C; in test [1] (CF1 50 mg/kg oral) it was 37.4 ± 0.1 °C; in test [2] (CF1 10 mg/kg oral), 37.7 ± 0.2 °C; in test [2] (CF1 50 mg/kg oral) it was 37.9 ± 0.2 °C. For the same molecule, the “Body temperature 8 hours after modeling” value in test [1] (CF1 10 mg/kg oral) came out at 37.2 ± 0.05 °C; in test [1] (CF1 50 mg/kg oral) it was 37.4 ± 0.1 °C; in test [2] (CF1 10 mg/kg oral) it was 37.9 ± 0.1 °C; in test [2] (CF1 50 mg/kg oral), 37.9 ± 0.1 °C. For the same molecule, the “Body temperature 4 hours after modeling” value was determined as 37.3 ± 0.1 °C in test [1] (CF1 10 mg/kg oral), 37.2 ± 0.1 °C in test [1] (CF1 50 mg/kg oral), 37.7 ± 0.2 °C in test [2] (CF1 10 mg/kg oral) and 37.6 ± 0.2 °C in test [2] (CF1 50 mg/kg oral). The “Effect … of model rats (in words)” value in test [1] (CF1 10 mg/kg oral, 2 hours and 8 hours post-modeling) is recorded as “can significantly inhibit the temperature elevation”; in test [2] (CF1 10 mg/kg oral, 2 hours after modeling), “can significantly reduce the body temperature”. For the same molecule, the Latency period in test [3] (CF1 20 mg/kg oral) is 34.6 ± 3.1 s; in test [3] (CF1 50 mg/kg oral) it was 35.1 ± 4.6 s. The “Effect on cough frequency (in words)” value in test [3] (CF1 20 mg/kg oral, vs solvent control group) is listed as “statistically significant difference in term of cough frequency, but the effect is weak”. Moreover, in test [3] (dose not stated), the “Antitussive effect (summary, in words)” value is on record as “can reduce the cough frequency”. The Cough frequency is reported as 50.1 ± 2.8 in test [3] (CF1 20 mg/kg oral) and 56.4 ± 4.2 in test [3] (CF1 50 mg/kg oral). For the same molecule, the “Effect on body temperature of model rats (summary, in words)” value in test [2] (2 hours post-modeling, dose not stated) is listed as “significant effect in reducing the body temperature”.
